T1: dog FAPα on Expi293F cells (dog (Canis familiaris), UniProt A5D7B7 1-760 (bovine entry))
T1 chain: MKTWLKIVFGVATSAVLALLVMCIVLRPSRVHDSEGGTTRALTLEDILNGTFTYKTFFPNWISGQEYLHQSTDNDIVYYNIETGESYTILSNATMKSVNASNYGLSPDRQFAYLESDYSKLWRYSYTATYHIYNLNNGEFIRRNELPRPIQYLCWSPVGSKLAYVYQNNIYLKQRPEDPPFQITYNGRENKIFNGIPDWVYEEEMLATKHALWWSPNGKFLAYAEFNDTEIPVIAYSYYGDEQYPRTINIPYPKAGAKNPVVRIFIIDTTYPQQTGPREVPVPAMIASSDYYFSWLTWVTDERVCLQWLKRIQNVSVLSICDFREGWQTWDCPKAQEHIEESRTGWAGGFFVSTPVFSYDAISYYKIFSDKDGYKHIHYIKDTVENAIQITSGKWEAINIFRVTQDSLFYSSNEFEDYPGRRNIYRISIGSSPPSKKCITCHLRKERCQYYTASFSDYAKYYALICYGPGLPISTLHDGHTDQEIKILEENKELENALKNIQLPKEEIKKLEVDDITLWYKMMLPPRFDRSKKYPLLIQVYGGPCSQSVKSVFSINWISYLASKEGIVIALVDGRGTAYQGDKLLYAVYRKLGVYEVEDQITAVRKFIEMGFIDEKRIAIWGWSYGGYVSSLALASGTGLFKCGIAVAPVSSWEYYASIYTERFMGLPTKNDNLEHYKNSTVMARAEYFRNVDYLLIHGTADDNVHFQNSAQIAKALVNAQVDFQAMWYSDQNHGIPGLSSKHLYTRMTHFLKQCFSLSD

T2: human FAPα (Fibroblast activation protein alpha), cell surface expressed (human, UniProt Q12884 1-760)
T2 construct: Endogenous on human lung fibroblasts and CAFs
T2 sequence: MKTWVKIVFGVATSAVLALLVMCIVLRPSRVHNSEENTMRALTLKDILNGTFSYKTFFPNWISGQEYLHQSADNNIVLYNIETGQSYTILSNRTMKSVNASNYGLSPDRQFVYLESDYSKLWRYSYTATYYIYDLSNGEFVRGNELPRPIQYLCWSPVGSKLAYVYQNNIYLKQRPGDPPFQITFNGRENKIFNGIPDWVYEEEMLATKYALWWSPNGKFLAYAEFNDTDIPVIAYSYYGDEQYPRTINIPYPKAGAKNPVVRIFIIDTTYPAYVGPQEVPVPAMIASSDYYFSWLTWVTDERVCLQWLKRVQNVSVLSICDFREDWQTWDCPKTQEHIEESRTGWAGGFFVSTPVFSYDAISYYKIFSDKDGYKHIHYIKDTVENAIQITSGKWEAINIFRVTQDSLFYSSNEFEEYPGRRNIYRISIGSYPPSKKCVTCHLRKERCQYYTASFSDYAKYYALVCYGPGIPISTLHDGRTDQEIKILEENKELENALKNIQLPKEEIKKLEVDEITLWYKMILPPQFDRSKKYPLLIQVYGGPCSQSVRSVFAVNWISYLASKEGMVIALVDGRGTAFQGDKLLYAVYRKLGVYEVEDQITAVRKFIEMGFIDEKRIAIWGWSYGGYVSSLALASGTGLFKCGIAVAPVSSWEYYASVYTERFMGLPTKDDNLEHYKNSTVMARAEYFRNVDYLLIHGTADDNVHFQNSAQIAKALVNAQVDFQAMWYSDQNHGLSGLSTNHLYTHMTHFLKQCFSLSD

T3: human DR4 (Death Receptor 4), cell surface expressed on human tumor cell lines (human, UniProt O00220 24-468)
T3 construct: also called TNFRSF10A; TRAIL-R1
T3 sequence: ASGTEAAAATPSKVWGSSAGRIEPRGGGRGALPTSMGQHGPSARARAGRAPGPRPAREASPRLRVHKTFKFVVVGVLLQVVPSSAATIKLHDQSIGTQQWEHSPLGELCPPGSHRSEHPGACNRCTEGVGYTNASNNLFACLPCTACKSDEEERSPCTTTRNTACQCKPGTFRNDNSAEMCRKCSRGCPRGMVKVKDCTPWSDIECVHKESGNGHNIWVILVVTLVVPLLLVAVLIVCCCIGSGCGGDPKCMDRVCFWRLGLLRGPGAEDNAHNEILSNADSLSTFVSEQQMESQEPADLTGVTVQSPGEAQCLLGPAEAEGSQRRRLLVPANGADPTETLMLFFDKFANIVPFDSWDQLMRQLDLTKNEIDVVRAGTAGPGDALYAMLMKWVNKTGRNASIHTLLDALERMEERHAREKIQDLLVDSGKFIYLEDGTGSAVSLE


Assays:
[1] = target: T1, dog FAPα on Expi293F cells; experiment: flow cytometry on Expi293F cells transiently expressing dog FAPα, gMFI PE
Description: (§1) Binding of BisG1-FAPα-FERL/DR4-FERR, BisG1-FAPα-FEAL/b12-FEAR and IgG1-FAPα-FERL to FAPα of species commonly used for nonclinical toxicology studies was assessed by flow cytometry using Expi293F cells transiently expressing FAPα from different animal species. IgG1-b12 was included as negative control.
(§2) Expi293F cells expressing recombinant FAPα from various species (human, cynomolgus monkey, dog, pig, rat or mouse) were seeded (20,000 cells/well) in 96-Well round bottom plates (Greiner Bio-one, Cat #650101). Antibody dilutions were prepared using FACS buffer, consisting of PBS (Capricorn Scientific, Cat #PBS-10XA, diluted to 1×PBS in distilled water)+1% BSA (Roche, Cat #10735086001)+0.02% Sodium Azide (Bio-World, Cat #41920044-3). Plates were centrifuged, supernatant was removed, and cells were resuspended in 100 μL of antibody dilutions (concentration range 30-0.00017 μg/mL with three-fold serial dilutions using FACS buffer) of BisG1-FAPα-FERL/DR4-FERR, BisG1-FAPα-FEAL/b12-FEAR, IgG1-FAPα-FERL and IgG1-b12 and incubated for 30 min at 4° C. […] After 30 min incubation at 4° C., cells were washed with FACS buffer and resuspended in FACS buffer supplemented with TO-PRO-3 Iodide viability marker (Invitrogen, Cat #T3605, diluted 1:4,000). Antibody binding to viable cells (gMFI of PE on TO-PRO-3 negative cells) was analyzed by flow cytometry on a FACS Celesta and FACS_Diva software (first two experiments) or iQue® 3 and FlowJo software (last experiment). gMFI was determined and visualized using GraphPad Prism. Binding curves were analyzed using nonlinear regression analysis. The concentration (pg/mL) at which 50% of the maximal effect was observed (EC₅₀) was derived from the fitted curves.

[2] = target: T2, human FAPα (Fibroblast activation …); experiment: flow cytometry, Expi293F cells expressing human FAPα, average ± SEM
Description: as §1, §2

[3] = target: T3, human DR4 (Death Receptor 4), cell …; experiment: flow cytometry, PANC-1 cells, n = 1
[4] = target: T3, human DR4 (Death Receptor 4), cell …; experiment: flow cytometry, PANC-1 cells, average ± SEM

Row | Binder | binding result [1] | EC50 [2] [µg/mL] | EC50 [3] [µg/mL] | EC50 [4] [µg/mL]
1 | BisG1-FAPα-FEAL/b12-FEAR (bispecific antibody, human IgG1, kappa, Fab-arm exchange of IgG1-FAPα-FEAL and IgG1-b12-FEAR) heavy 1: EVQLLESGGGLVQPGGSPRLSCEASGFTFSSYALSWVRQAPGKGLEWVSAISGSGGGRYYADSVKGRFTISRDNSKNTLFLQMNSLRAEDTAVYYCAKEGYSSSGTYWDHWGQGTLVTVSSASTKGPSVFPLAPSSKSTSGGTAALGCLVKDYFPEPVTVSWNSGALTSGVHTFPAVLQSSGLYSLSSVVTVPSSSLGTQTYICNVNHKPSNTKVDKRVEPKSCDKTHTCPPCPAPEFEGGPSVFLFPPKPKDTLMISRTPEVTCVVVAVSHEDPEVKFNWYVDGVEVHNAKTKPREEQYNSTYRVVSVLTVLHQDWLNGKEYKCKVSNKALPAPIEKTISKAKGQPREPQVYTLPPSREEMTKNQVSLTCLVKGFYPSDIAVEWESNGQPENNYKTTPPVLDSDGSFLLYSKLTVDKSRWQQGNVFSCSVMHEALHNHYTQKSLSLSPG light 1: AIQMTQSPSSVSASVGDRVTITCRASQGVSSWLAWYQQKPGRAPKLLIYVASTLQSGVPSRFSGSGSGTDFTLTINSLQPEDFATYYCQQANSFPPTFGQGTRLEMKRTVAAPSVFIFPPSDEQLKSGTASVVCLLNNFYPREAKVQWKVDNALQSGNSQESVTEQDSKDSTYSLSSTLTLSKADYEKHKVYACEVTHQGLSSPVTKSFNRGEC heavy 2: QVQLVQSGAEVKKPGASVKVSCQASGYRFSNFVIHWVRQAPGQRFEWMGWINPYNGNKEFSAKFQDRVTFTADTSANTAYMELRSLRSADTAVYYCARVGPYSWDDSPQDNYYMDVWGKGTTVIVSSASTKGPSVFPLAPSSKSTSGGTAALGCLVKDYFPEPVTVSWNSGALTSGVHTFPAVLQSSGLYSLSSVVTVPSSSLGTQTYICNVNHKPSNTKVDKRVEPKSCDKTHTCPPCPAPEFEGGPSVFLFPPKPKDTLMISRTPEVTCVVVAVSHEDPEVKFNWYVDGVEVHNAKTKPREEQYNSTYRVVSVLTVLHQDWLNGKEYKCKVSNKALPAPIEKTISKAKGQPREPQVYTLPPSREEMTKNQVSLTCLVKGFYPSDIAVEWESNGQPENNYKTTPPVLDSDGSFFLYSRLTVDKSRWQQGNVFSCSVMHEALHNHYTQKSLSLSPG light 2: EIVLTQSPGTLSLSPGERATFSCRSSHSIRSRRVAWYQHKPGQAPRLVIHGVSNRASGISDRFSGSGSGTDFTLTITRVEPEDFALYYCQVYGASSYTFGQGTKLERKRTVAAPSVFIFPPSDEQLKSGTASVVCLLNNFYPREAKVQWKVDNALQSGNSQESVTEQDSKDSTYSLSSTLTLSKADYEKHKVYACEVTHQGLSSPVTKSFNRGEC | binds | 0.3 |  | 
2 | IgG1-FAPα-FERL (antibody, Bivalent monoclonal IgG1 kappa) heavy: EVQLLESGGGLVQPGGSPRLSCEASGFTFSSYALSWVRQAPGKGLEWVSAISGSGGGRYYADSVKGRFTISRDNSKNTLFLQMNSLRAEDTAVYYCAKEGYSSSGTYWDHWGQGTLVTVSSASTKGPSVFPLAPSSKSTSGGTAALGCLVKDYFPEPVTVSWNSGALTSGVHTFPAVLQSSGLYSLSSVVTVPSSSLGTQTYICNVNHKPSNTKVDKRVEPKSCDKTHTCPPCPAPEFERGPSVFLFPPKPKDTLMISRTPEVTCVVVDVSHEDPEVKFNWYVDGVEVHNAKTKPREEQYNSTYRVVSVLTVLHQDWLNGKEYKCKVSNKALPAPIEKTISKAKGQPREPQVYTLPPSREEMTKNQVSLTCLVKGFYPSDIAVEWESNGQPENNYKTTPPVLDSDGSFLLYSKLTVDKSRWQQGNVFSCSVMHEALHNHYTQKSLSLSPG light: AIQMTQSPSSVSASVGDRVTITCRASQGVSSWLAWYQQKPGRAPKLLIYVASTLQSGVPSRFSGSGSGTDFTLTINSLQPEDFATYYCQQANSFPPTFGQGTRLEMKRTVAAPSVFIFPPSDEQLKSGTASVVCLLNNFYPREAKVQWKVDNALQSGNSQESVTEQDSKDSTYSLSSTLTLSKADYEKHKVYACEVTHQGLSSPVTKSFNRGEC | binds | 0.18 |  | 
3 | IgG1-DR4-FERR (antibody, V domains shown, Bivalent monoclonal IgG1 lambda) VH: QVQLQESGPGLVKPSGTLSLTCAVSGGSISSYSWWSWIRQPPGKGLEWIGELYHSGSTNYNPSLKSRVTISVDKSKNQFSLKLRSVTAADTAVYYCVRGVATIDYWGQGTLVTVSS VL: QSALTQPPSASGSPGQSVTISCTGTSSDVGGYNFVSWYQQDPGKAPKLLIYEVTKRPSGVPDRFSGSKSGNTASLTVSGLQAEDEADYYCSSYAGSNNVMFGGGTKLTVLG |  |  | 0.68 | 0.49

Reference: patent US20250002610A1 (Genmab, published 2025)
